The target of the assay is collagen. Description: SPR (Biacore 2000), collagen immobilised on CM-3 chip, peptide as analyte, from on-off binding kinetics.

Molecule RRANAALKAGELYKSILYGC [peptide … (SILY)] registered a dissociation constant Kd of 1200 nM.

The values above are taken from patent publication US20150038427A1.
